# B1: DNAJB7 (on the ProtoArray) (natural protein, UniProt Q7Z6W7 1-309, looked up)
# chain: MVDYYEVLGLQRYASPEDIKKAYHKVALKWHPDKNPENKEEAERKFKEVAEAYEVLSNDEKRDIYDKYGTEGLNGGGSHFDDECEYGFTFHKPDDVFKEIFHERDPFSFHFFEDSLEDLLNRPGSSYGNRNRDAGYFFSTASEYPIFEKFSSYDTGYTSQGSLGHEGLTSFSSLAFDNSGMDNYISVTTSDKIVNGRNINTKKIIESDQEREAEDNGELTFFLVNSVANEEGFAKECSWRTQSFNNYSPNSHSSKHVSQYTFVDNDEGGISWVTSNRDPPIFSAGVKEGGKRKKKKRKEVQKKSTKRNC
# notes: DNAJB7, protein spotted on the ProtoArray; source: bought: spotted on ProtoArray protein microarray (Invitrogen / ThermoFisher)
# B2: Na+/H+ Exchange Regulator Factor 1 (on the ProtoArray) (natural protein, UniProt O14745 1-358, looked up)
# chain: MSADAAAGAPLPRLCCLEKGPNGYGFHLHGEKGKLGQYIRLVEPGSPAEKAGLLAGDRLVEVNGENVEKETHQQVVSRIRAALNAVRLLVVDPETDEQLQKLGVQVREELLRAQEAPGQAEPPAAAEVQGAGNENEPREADKSHPEQRELRPRLCTMKKGPSGYGFNLHSDKSKPGQFIRSVDPDSPAEASGLRAQDRIVEVNGVCMEGKQHGDVVSAIRAGGDETKLLVVDRETDEFFKKCRVIPSQEHLNGPLPVPFTNGEIQKENSREALAEAALESPRPALVRSASSDTSEELNSQDSPPKQDSTAPSSTSSSDPILDFNISLAMAKERAHQKRSSKRAPQMDWSKKNELFSNL
# notes: NHERF1 (EBP50), protein spotted on the ProtoArray; also called NHERF1; EBP50; source: bought: spotted on ProtoArray protein microarray (Invitrogen / ThermoFisher)
# B3: DNAJB8 (on the ProtoArray) (natural protein, UniProt Q8NHS0 1-232, looked up)
# chain: MANYYEVLGVQASASPEDIKKAYRKLALRWHPDKNPDNKEEAEKKFKLVSEAYEVLSDSKKRSLYDRAGCDSWRAGGGASTPYHSPFDTGYTFRNPEDIFREFFGGLDPFSFEFWDSPFNSDRGGRGHGLRGAFSAGFGEFPAFMEAFSSFNMLGCSGGSHTTFSSTSFGGSSSGSSGFKSVMSSTEMINGHKVTTKRIVENGQERVEVEEDGQLKSVTVNGKEQLKWMDSK
# notes: DNAJB8, protein spotted on the ProtoArray; source: bought: spotted on ProtoArray protein microarray (Invitrogen / ThermoFisher)
# Target: T1, full length FLAG-CFTR (WT-CFTR) (UniProt P13569 1-1480)
# T1 construct: Cystic Fibrosis transmembrane-conductance regulator (CFTR), wild type, 1,480 amino acids; Surface CFTR was probed with anti-FLAG on fixed cells, so the FLAG tag may lie in an extracellular loop; also called FLAG-WT-CFTR; Cystic Fibrosis transmembrane-conductance regulator; source: HEK293 cells stably expressing it; purified on anti-FLAG resin (ProtoArray) or in whole-cell lysate (co-IP)
# T1 sequence (P13569 whole entry): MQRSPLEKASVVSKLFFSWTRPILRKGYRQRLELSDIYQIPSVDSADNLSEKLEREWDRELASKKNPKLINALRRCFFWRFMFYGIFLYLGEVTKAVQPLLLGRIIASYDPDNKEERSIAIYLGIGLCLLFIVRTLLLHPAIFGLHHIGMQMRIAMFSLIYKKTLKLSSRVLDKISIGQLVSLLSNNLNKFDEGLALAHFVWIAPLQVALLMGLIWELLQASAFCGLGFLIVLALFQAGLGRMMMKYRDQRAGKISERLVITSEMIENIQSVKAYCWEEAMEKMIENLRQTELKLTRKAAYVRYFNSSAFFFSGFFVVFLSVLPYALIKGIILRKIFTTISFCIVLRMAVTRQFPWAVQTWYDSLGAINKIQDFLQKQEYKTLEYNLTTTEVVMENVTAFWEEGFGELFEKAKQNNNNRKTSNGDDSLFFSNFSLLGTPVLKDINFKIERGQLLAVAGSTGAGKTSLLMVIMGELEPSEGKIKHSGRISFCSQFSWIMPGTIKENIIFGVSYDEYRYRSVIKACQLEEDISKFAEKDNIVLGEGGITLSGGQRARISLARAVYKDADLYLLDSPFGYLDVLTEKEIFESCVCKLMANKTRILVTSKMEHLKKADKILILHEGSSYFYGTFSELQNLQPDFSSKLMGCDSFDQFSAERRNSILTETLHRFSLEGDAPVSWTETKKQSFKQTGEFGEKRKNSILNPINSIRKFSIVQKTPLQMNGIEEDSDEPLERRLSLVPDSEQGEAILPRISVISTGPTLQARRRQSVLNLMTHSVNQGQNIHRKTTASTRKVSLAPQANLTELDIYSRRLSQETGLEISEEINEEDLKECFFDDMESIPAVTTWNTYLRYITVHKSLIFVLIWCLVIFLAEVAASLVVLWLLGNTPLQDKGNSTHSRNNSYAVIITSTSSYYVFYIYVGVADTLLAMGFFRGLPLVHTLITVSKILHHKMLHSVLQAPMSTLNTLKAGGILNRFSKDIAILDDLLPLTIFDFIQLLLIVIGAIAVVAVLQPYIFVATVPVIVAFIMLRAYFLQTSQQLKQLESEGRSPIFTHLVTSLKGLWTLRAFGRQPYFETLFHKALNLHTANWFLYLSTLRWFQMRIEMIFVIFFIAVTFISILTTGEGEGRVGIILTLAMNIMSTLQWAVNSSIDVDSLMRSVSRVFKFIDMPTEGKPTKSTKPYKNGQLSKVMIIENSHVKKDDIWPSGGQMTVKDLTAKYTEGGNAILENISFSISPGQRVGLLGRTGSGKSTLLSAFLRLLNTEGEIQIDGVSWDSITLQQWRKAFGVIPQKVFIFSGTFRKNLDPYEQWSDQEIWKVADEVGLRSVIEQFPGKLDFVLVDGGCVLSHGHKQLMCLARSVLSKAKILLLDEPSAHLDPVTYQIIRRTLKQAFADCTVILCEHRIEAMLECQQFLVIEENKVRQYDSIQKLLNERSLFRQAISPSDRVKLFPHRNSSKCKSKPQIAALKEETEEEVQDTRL
# Assay: peptide or protein array; ProtoArray protein microarray (Invitrogen / ThermoFisher) probed with purified full length FLAG-CFTR in solution; bound CFTR detected with mouse anti-FLAG monoclonal antibody and Alexa-488 secondary antibody, fluorescence scanner; mean of duplicate
# Conditions: both partners purified
row,Binder,binding result
1,B1,binds
2,B2,binds
3,B3,binds
